# Publication PMC9478924 (The Journal of Biological Chemistry, 2022)
# Read-outs that look alike come from different tables or passages of the source.
# T1: EVA-4 (UniProt P0C8E9 24-127, biotin on the Avi-tag (Bir-A ligase))
# T1 sequence (looked up): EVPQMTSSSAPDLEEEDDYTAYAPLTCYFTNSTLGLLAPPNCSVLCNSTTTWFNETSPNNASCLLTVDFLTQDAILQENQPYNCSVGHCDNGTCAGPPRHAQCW
# T2: EVA-P974 (UniProt A0A023FDY8 22-118, biotin on the Avi-tag (Bir-A ligase))
# T2 sequence (looked up): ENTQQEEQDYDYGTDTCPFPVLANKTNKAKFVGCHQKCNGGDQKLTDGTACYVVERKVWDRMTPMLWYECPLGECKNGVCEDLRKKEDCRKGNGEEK
# T3: EVA-1 (UniProt P0C8E7 21-114, biotin on the Avi-tag (Bir-A ligase))
# T3 sequence (looked up): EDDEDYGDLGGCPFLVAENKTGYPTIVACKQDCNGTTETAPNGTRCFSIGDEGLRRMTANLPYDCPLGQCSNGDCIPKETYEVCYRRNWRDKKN
# B1: CCL24 (ligand, human, UniProt O00175 27-119, looked up)
# chain: VVIPSPCCMFFVSKRIPENRVVSYQLSSRSTCLKAGVIFTTKKGQQFCGDPKQEWVQRYMKNLDAKQKKASPRARAVAVKGPVQRYPGNQTTC
# B2: CCL1 (ligand, human, UniProt P22362 24-96, looked up)
# chain: KSMQVPFSRCCFSFAEQEIPLRAILCYRNTSSICSNEGLIFKLKRGKEACALDTVGWVQRHRKMLRHCPSKRK
# B3: CCL17 (ligand, human, UniProt Q92583 24-94, looked up)
# chain: ARGTNVGRECCLEYFKGAIPLRKLKTWYQTSEDCSRDAIVFVTVQGRAICSDPNNKRVKNAVKYLQSLERS
# B4: CCL5 (ligand, human, UniProt P13501 24-91, looked up)
# chain: SPYSSDTTPCCFAYIARPLPRAHIKEYFYTSGKCSNPAVVFVTRKNRQVCANPEKKWVREYINSLEMS
# B5: CCL15 (ligand, human, UniProt Q16663 22-113, looked up)
# chain: QFTNDAETELMMSKLPLENPVVLNSFHFAADCCTSYISQSIPCSLMKSYFETSSECSKPGVIFLTKKGRQVCAKPSGPGVQDCMKKLKPYSI
# B6: CCL7 (ligand)
# chain: not shown
# B7: CCL8 (ligand, human, UniProt P80075 24-99, looked up)
# chain: QPDSVSIPITCCFNVINRKIPIQRLESYTRITNIQCPKEAVIFKTKRGKEVCADPKERWVRDSMKHLDQIFQNLKP
# B8: CCL13 (ligand)
# chain: not shown
# B9: CCL16 (ligand, human, UniProt O15467 24-120, looked up)
# chain: QPKVPEWVNTPSTCCLKYYEKVLPRRLVVGYRKALNCHLPAIIFVTKRNREVCTNPNDDWVQEYIKDPNLPLLPTRNLSTVKIITAKNGQPQLLNSQ
# B10: CCL11 (ligand)
# chain: not shown
# B11: CCL22 (ligand, human, UniProt O00626 25-93, looked up)
# chain: GPYGANMEDSVCCRDYVRYRLPLRVVKHFYWTSDSCPRPGVVLLTFRDKEICADPRVPWVKMILNKLSQ
# B12: CCL23 (ligand, human, UniProt P55773 22-120, looked up)
# chain: RVTKDAETEFMMSKLPLENPVLLDRFHATSADCCISYTPRSIPCSLLESYFETNSECSKPGVIFLTKKGRRFCANPSDKQVQVCMRMLKLDTRIKTRKN
# B13: CCL3 (ligand, human, UniProt P10147 24-92, looked up)
# chain: SLAADTPTACCFSYTSRQIPQNFIADYFETSSQCSKPGVIFLTKRSRQVCADPSEEWVQKYVSDLELSA
# B14: CCL14 (ligand, human, UniProt Q16627 20-93, looked up)
# chain: TKTESSSRGPYHPSECCFTYTTYKIPRQRIMDYYETNSQCSKPGIVFITKRGHSVCTNPSDKWVQDYIKDMKEN
# B15: CCL4 (ligand, human, UniProt P13236 24-92, looked up)
# chain: APMGSDPPTACCFSYTARKLPRNFVVDYYETSSLCSQPAVVFQTKRSKQVCADPSESWVQEYVYDLELN
# B16: CCL18 (ligand, human, UniProt P55774 21-89, looked up)
# chain: AQVGTNKELCCLVYTSWQIPQKFIVDYSETSPQCPKPGVILLTKRGRQICADPNKKWVQKYISDLKLNA
# Columns and labels:
# Assay in all cases: SPR
# EVA-4 = target: T1, EVA-4
# EVA-P974 [1] = target: T2, EVA-P974
# EVA-P974 [2] = target: T2, EVA-P974; remark: listed apart in the source
# EVA-1 = target: T3, EVA-1
Binder,Kd (EVA-4) [nM],Kd (EVA-P974 [1]) [nM],Kd (EVA-P974 [2]) [nM],Kd (EVA-1) [nM]
B1,55,,,
B2,376,15,,
B3,283,23,,
B4,6.1,,,
B5,240,,,
B6,0.8,4.4,,
B7,0.4,0.03,< 0.1,
B8,,0.5,,
B9,4.1,0.1,< 0.1,
B10,20,0.3,,
B11,8.5,1.8,,
B12,7.4,,,
B13,0.2,0.6,,0.21
B14,1.1,1.8,,92
B15,,1.8,,60.7
B16,0.4,0.6,,192
